Earlier results as cited in publication PMC10419064.

Target: Cardiac troponin I switch peptide (Homo sapiens) (UniProt P19429)

- Kd: < 50 µM
Substance: Cardiac troponin C regulatory N-domain (from UniProt P63316)
